In patent US20220211826A1:
One block for each substance: values may come before it.

Key:
[1] = molecular target: H-2Kb/SIINFEKL pMHC complex on primary hepatocytes (mouse); experiment: cell-based or functional assay
[2] = molecular target: PD-L1 expressed by hepatocytes of C57BL/6 mice (mouse) (UniProt Q9EP73); experiment: cell-based or functional assay
Chain of UniProt Q9EP73 (Q9EP73 19-290): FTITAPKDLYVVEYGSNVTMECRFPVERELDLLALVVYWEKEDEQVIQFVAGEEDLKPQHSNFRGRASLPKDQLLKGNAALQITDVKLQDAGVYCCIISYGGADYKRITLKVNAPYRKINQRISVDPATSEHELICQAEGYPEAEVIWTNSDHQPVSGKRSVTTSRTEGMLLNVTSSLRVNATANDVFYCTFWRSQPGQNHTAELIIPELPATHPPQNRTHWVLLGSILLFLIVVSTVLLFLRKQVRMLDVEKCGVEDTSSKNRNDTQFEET

CD69+ OT-I cells after 24 hr co-culture with hepatocytes incubated with pGal-OVA alone [1]: 17%
CD69+ OT-I cells after 24 hr co-culture with hepatocytes treated with pGal-OVA and MG132 [1]: 3.98%
CD69+ OT-I cells after 24 hr co-culture with hepatocytes treated with pGal-OVA and chloroquine [1]: 7.38%
Substance: T cell receptor of OT-I cells (transgenic CD8+ T cells specific for H-2Kb/SIINFEKL) (TCR)

frequency of dLN IFN-γ+ OT-I cells, pGal-OVA and isotype control antibody-treated hepatocytes [2]: 29.2%
frequency of dLN IL-2+ OT-I cells, pGal-OVA and isotype control antibody-treated hepatocytes [2]: 4.21%
Substance: rat IgG isotype control Ab (Abcam) (antibody)
frequency of CD45.1+ OT-I cells among viable CD3+CD8+ lymphocytes in dLNs, mice given hepatocytes treated with pGal-OVA and isotype control antibody [2]: 0.2%

frequency of IFN-γ+ OT-I cells after OVA/LPS challenge, αPD-L1-treated hepatocytes [2]: 47.1%
frequency of IL-2+ OT-I cells after OVA/LPS challenge, αPD-L1-treated hepatocytes [2]: 7.53%
Substance: αPD-L1 blocking Ab (BioxCell, clone 10F.9G2) (antibody)
frequency of CD45.1+ OT-I cells among viable CD3+CD8+ lymphocytes in dLNs, mice given pGal-OVA- and αPD-L1-treated hepatocytes [2]: 0.45%
